From paper PMC3595323 (Proteins, 2013)

Target: the molecule itself
Assay: crystal structure

B1: Thermoplasma acidophilum nucleoside kinase Ta0880, crystallization construct (E112A, K113A, K115A) (enzyme, UniProt Q9HJT3 1-287, looked up)
chain: MRFLAYFGHLNIDVLISVDSIPREGSVNVKDLRPRFGGTAGNFAIVAQKFRIPFDLYSAVGMKTHREYLAMIESMGINTGHVEKFEDESGPICYIATDGKKQVSFMHQGAMAAWAPQLADEYEYVHFSTGPNYLDMAKSIRSKIIFDPSQEIHKYSKDELKKFHEISYMSIFNDHEYRVFREMTGLSSPKVTTIVTNGERGSSLFMDGKKYDFPAIPSSGDTVGAGDSFRAGLYLALYNRRSIEKGMIYGTIIAHHVIDDGIENFSLNMEDLERETENYRRMFTKRS
modifications: selenomethionine (expressed in selenomethionine-containing medium with suppression of normal methionine synthesis)
- binding result: binds
